In paper doi:10.1101/2020.06.11.147496:

Molecular target: LuS-N71-SpyTag (Aquifex aeolicus lumazine synthase nanoparticle with a glycan at N71 and SpyTag at the N-terminus) (Aquifex aeolicus)

SARS-CoV-2 spike-SpyCatcher (prefusion-stabilized SARS-CoV-2 spike trimer fused with a C-terminal SpyCatcher)
percent of nanoparticle subunits conjugated: 91%
